Broadly, the Kd is a measure of binding affinity in units of concentration. Higher therefore signals lower affinity.

Experiment [1] concerns GST-Bub1 425–500. The experiment is described as follows: In vitro phosphorylation of GST-Bub1, mass spectrometry. Type of experiment: biochemical, human. Here is the method:
To identify mitotic kinases able to phosphorylate Bub1 on Ser459 and Thr461 we performed in vitro phosphorylation assays with candidate kinases.
A similar set-up was used for analysing the phosphorylated GST-Bub1 except that an EASY-nLC 1200 UHPLC system connected to an Orbitrap Q-Exactive HF was used and the acetonitrile gradient was run for 77 min. The samples were analysed using a ‘fast' acquisition mode with a normalized collision energy (NCE) of 25 and raw data analysed with MaxQuant software suit version 1.5.7.4.
GST- Bub1 (425–500) was expressed in BL21(DE3) cells at 18 °C overnight with 0.5 mM IPTG in the medium. The bacteria were lysed in 50 mM Tris-HCl pH 7.4, 300 mM NaCl, 10% glycerol, 5 mM β-mercaptoethanol, 1 mM PMSF, plus Complete-EDTA free protease inhibitors (Roche) using a high pressure homogenizer. Lysates were cleared by centrifugation and incubated with pre-equilibrated Glutathione-Fast Flow (GE Healthcare) beads for 2 h at 4 °C and eluted with GST-elution buffer at room temperature (50 mM Tris pH 8.8, 300 mM NaCl, 10% glycerol, 5 mM β-mercaptoethanol, 20 mM reduced glutathione). Elutions were pooled and run on Superdex 200 column (GE Healthcare) in PBS with 8.7% glycerol and 5 mM mercaptoethanol. Peak fractions were aliquoted and stored at −80 °C.
500 μM ATP and 125 nM Calyculin A (Cell Signaling) were added and the reactions were incubated at 30 °C for 1 h. Controls were incubated in kinase buffer and Calyculin A only. 6 μg of phosphorylated protein was resolved on NuPAGE Novex 4–12% Bis-Tris protein gels, which were fixed and stained by Colloidal Blue Staining (Thermo Scientific). The band corresponding to GST-Bub1 was cut out and analysed by mass spectrometry.

For experiment [2], the target named is T1, His-Strep-Mad1 597–718 (human, UniProt Q9Y6D9 597-718).
T1 construct: composition confirmed by multi-angle light scattering; also called Mad1 C-terminal fragment; source: E. coli BL21(DE3), purified (HiTrap Ni column, Superdex 75)
T1 sequence (looked up): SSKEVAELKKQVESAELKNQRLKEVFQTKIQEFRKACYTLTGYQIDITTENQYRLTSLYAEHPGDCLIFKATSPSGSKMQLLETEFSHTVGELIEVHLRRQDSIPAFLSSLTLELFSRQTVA
The experiment is described as follows: SPR; N-terminally biotinylated Bub1 peptides captured (~50 RU) on a streptavidin-coated CM5 chip, Mad1 proteins injected; Biacore T200, 25 °C; 25 mM Tris pH 7.8, 150 mM NaCl, 10 mM MgCl2, 0.25 M TCEP, 0.005% Surfactant P-20; steady-state affinity model. The following applies: both partners purified. (In general: In SPR one partner is held on a chip, and binding of the other changes the refractive index at the surface.)

The subject of experiment [3] is Bub1 and KNL1. The experiment is described as follows: BioID proximity biotinylation. The experiment is classed as cell-based, human. An excerpt:
We speculated that CD1 might engage in a protein-protein interaction that is critical for checkpoint signalling. Mad1 appeared to be the only core component of the checkpoint for which we could see an effect of removing the CD1 on its kinetochore levels (Supplementary Fig. 1 for Cdc20 and ref. [33] for BubR1, Mad1). However, an interaction between human Mad1 and Bub1 cannot be detected in immunoprecipitation experiments. To determine whether there was an interaction between human Mad1 and Bub1, we first developed an assay for looking at transient and/or weak Mad1 interactions in vivo. […] The purification and detection of biotinylated proteins were highly robust and we detected multiple Mad1 peptides upon addition of biotin, as expected (Supplementary Fig. 5C). Using a quantitative mass spectrometry SILAC approach allowed us to compare the proximity of proteins to the N terminus versus the C terminus of Mad1. […]
Figure 3 Bub1 directly interacts with Mad1. (a) Nocodazole arrested HeLa cells stably expressing the indicated Mad1-BirA or BirA-Mad1 fusion protein at near endogenous levels were analyzed 16 h after induction with doxycyclin with or without exposure to 25 μM biotin. […] Bound Bub1 protein was detected by blotting for FLAG. (e) Quantification of three independent experiments as in d with WT binding set to 1. […]

[4] abbreviates: GST-Bub1 425-500, 30 °C for 1 h, 500 μM ATP, LC-MS, kinase-free control 0.

Square brackets hold non-standard residues; d marks the D form. Ends that are not written are not given here. * marks the point of attachment. Biotin = O=C1N[C@H]2[C@H](CS[C@H]2CCCCC(=O)*)N1; Nle = CCCC[C@H](N)C(=O)O

B1: Mps1: purified kinase (Life Technologies) (protein, UniProt P33981 1-857, looked up)
Dual specificity protein …: MESEDLSGRELTIDSIMNKVRDIKNKFKNEDLTDELSLNKISADTTDNSGTVNQIMMMANNPEDWLSLLLKLEKNSVPLSDALLNKLIGRYSQAIEALPPDKYGQNESFARIQVRFAELKAIQEPDDARDYFQMARANCKKFAFVHISFAQFELSQGNVKKSKQLLQKAVERGAVPLEMLEIALRNLNLQKKQLLSEEEKKNLSASTVLTAQESFSGSLGHLQNRNNSCDSRGQTTKARFLYGENMPPQDAEIGYRNSLRQTNKTKQSCPFGRVPVNLLNSPDCDVKTDDSVVPCFMKRQTSRSECRDLVVPGSKPSGNDSCELRNLKSVQNSHFKEPLVSDEKSSELIITDSITLKNKTESSLLAKLEETKEYQEPEVPESNQKQWQSKRKSECINQNPAASSNHWQIPELARKVNTEQKHTTFEQPVFSVSKQSPPISTSKWFDPKSICKTPSSNTLDDYMSCFRTPVVKNDFPPACQLSTPYGQPACFQQQQHQILATPLQNLQVLASSSANECISVKGRIYSILKQIGSGGSSKVFQVLNEKKQIYAIKYVNLEEADNQTLDSYRNEIAYLNKLQQHSDKIIRLYDYEITDQYIYMVMECGNIDLNSWLKKKKSIDPWERKSYWKNMLEAVHTIHQHGIVHSDLKPANFLIVDGMLKLIDFGIANQMQPDTTSVVKDSQVGTVNYMPPEAIKDMSSSRENGKSKSKISPKSDVWSLGCILYYMTYGKTPFQQIINQISKLHAIIDPNHEIEFPDIPEKDLQDVLKCCLKRDPKQRISIPELLAHPYVQIQTHPVNQMAKGTTEEMKYVLGQLVGLNSPNSILKAAKTLYEHYSGGESHNSSSSKTFEKKRGKK
B1: in experiment [1] (setting [4]), the “intensity of phospho-peptide 456-VQPS(Phos)PTVHTK (pS459)” value is 0 and the “intensity of phospho-peptide 456-VQPSPT(Phos)VHTK (pT461)” value is listed as 7,84 E+08. The “phosphorylation of GST-Bub1 425–500 (in words)” value in experiment [1] (Ser459 and Thr461, mass spectrometry) is given as “phosphorylation of Thr461 but no phosphorylation on Ser459”.

B2: biotinylated CD1 peptide (residues 449–480), unphosphorylated (peptide, UniProt O43683 449-480, looked up)
peptide: Biotin-VQATPSKVQPSPTVHTKEALGFI[Nle]N[Nle]FQAPTL
notes: Bub1, human, residues 449–480 (CD1 and surrounding residues); also called WT; unphosphorylated CD1 peptide; source: synthetic peptide, bought: Biosyntan Gmbh
Regarding B2, the Kd in experiment [2] was 304 µM.

B3: Mad1-BirA: promiscuous biotin ligase BirA fused to the C terminus of Mad1 (protein)
chain: MEDLGENTMVLSTLRSLNNFISQRVEGGSGLDISTSAPGSLQMQYQQSMQLEERAEQIRSKSHLIQVEREKMQMELSHKRARVELERAASTSARNYEREVDRNQELLTRIRQLQEREAGAEEKMQEQLERNRQCQQNLDAASKRLREKEDSLAQAGETINALKGRISELQWSVMDQEMRVKRLESEKQELQEQLDLQHKKCQEANQKIQELQASQEARADHEQQIKDLEQKLSLQEQDAAIVKNMKSELVRLPRLERELKQLREESAHLREMRETNGLLQEELEGLQRKLGRQEKMQETLVGLELENERLLAKLQSWERLDQTMGLSIRTPEDLSRFVVELQQRELALKDKNSAVTSSARGLEKARQQLQEELRQVSGQLLEERKKRETHEALARRLQKRVLLLTKERDGMRAILGSYDSELTPAEYSPQLTRRMREAEDMVQKVHSHSAEMEAQLSQALEELGGQKQRADMLEMELKMLKSQSSSAEQSFLFSREEADTLRLKVEELEGERSRLEEEKRMLEAQLERRALQGDYDQSRTKVLHMSLNPTSVARQRLREDHSQLQAECERLRGLLRAMERGGTVPADLEAAAASLPSSKEVAELKKQVESAELKNQRLKEVFQTKIQEFRKACYTLTGYQIDITTENQYRLTSLYAEHPGDCLIFKATSPSGSKMQLLETEFSHTVGELIEVHLRRQDSIPAFLSSLTLELFSRQTVA
modifications: left off: BirA, C-terminal, kept
For B3, in experiment [3] (SILAC mass spectrometry, single experiment, and western blot), the “biotinylation of Bub1, BubR1 and Cdc20 (proximity), Mad1-BirA vs BirA-Mad1” value is “more efficiently labelled with biotin”.

B4: MAD1 EFR/AAA: Mad1-BirA with Glu710, Phe712 and Arg714 mutated to Ala (protein)
chain: MEDLGENTMVLSTLRSLNNFISQRVEGGSGLDISTSAPGSLQMQYQQSMQLEERAEQIRSKSHLIQVEREKMQMELSHKRARVELERAASTSARNYEREVDRNQELLTRIRQLQEREAGAEEKMQEQLERNRQCQQNLDAASKRLREKEDSLAQAGETINALKGRISELQWSVMDQEMRVKRLESEKQELQEQLDLQHKKCQEANQKIQELQASQEARADHEQQIKDLEQKLSLQEQDAAIVKNMKSELVRLPRLERELKQLREESAHLREMRETNGLLQEELEGLQRKLGRQEKMQETLVGLELENERLLAKLQSWERLDQTMGLSIRTPEDLSRFVVELQQRELALKDKNSAVTSSARGLEKARQQLQEELRQVSGQLLEERKKRETHEALARRLQKRVLLLTKERDGMRAILGSYDSELTPAEYSPQLTRRMREAEDMVQKVHSHSAEMEAQLSQALEELGGQKQRADMLEMELKMLKSQSSSAEQSFLFSREEADTLRLKVEELEGERSRLEEEKRMLEAQLERRALQGDYDQSRTKVLHMSLNPTSVARQRLREDHSQLQAECERLRGLLRAMERGGTVPADLEAAAASLPSSKEVAELKKQVESAELKNQRLKEVFQTKIQEFRKACYTLTGYQIDITTENQYRLTSLYAEHPGDCLIFKATSPSGSKMQLLETEFSHTVGELIEVHLRRQDSIPAFLSSLTLALASAQTVA
modifications: left off: BirA, C-terminal, kept
notes: Mad1-BirA with Glu710, Phe712 and Arg714 mutated to Ala
As for B4, the “biotinylation of Bub1 and KNL1” value in experiment [3] (nocodazole arrested HeLa, 25 μM biotin, western blot, representative of two independent experiments) is “did not affect the biotinylation of Bub1 and KNL1”.

The values above are taken from publication PMC5472792, “Bub1 positions Mad1 close to KNL1 MELT repeats to promote checkpoint signalling” (Nature Communications, 2017).
